For experiment [1], the target named is IGF-I receptor of Mv1Lu cells (mink). The experiment can be described thus: cell-based or functional assay.
The target in experiment [2] is acidic pH binding sites of Mv1Lu cells. The experiment in a line: inhibition of 125I-α2M* binding to Mv1Lu cells at pH 5 or 6.
Experiment [3] deals with LRP-1 in mouse embryonic fibroblasts (MEF cells) (mouse) (UniProt Q91ZX7). The experiment can be described thus: co-immunoprecipitation with anti-annexin VI IgG from lysates of MEF cells carrying cell surface-bound 125I-α2M* (1 nM, pH 7.4).
Experiment [4] addresses acidic pH binding sites of Mv1Lu cells. The experiment in a line: inhibition of 125I-α2M* binding to Mv1Lu cells at pH 6.
Experiment [5] addresses TβR-V/LRP-1 in mink lung epithelial cells (Mv1Lu cells) (mink). The experiment in a line: inhibition of 10 nM 125I-IGFBP-3 affinity labeling (binding and DSS cross-linking) of TβR-V on Mv1Lu cells.
The target in experiment [6] is insulin receptor of Mv1Lu cells (mink). The experiment in a line: cell-based or functional assay.
The target of experiment [7] is acidic pH binding sites of MEF cells. The experiment in a line: competition with 125I-α2M* binding to MEF cells at pH 5.5.

LRP-1 in mouse embryonic fibroblasts (MEF cells) (mouse), sequence (Q91ZX7 20-4545): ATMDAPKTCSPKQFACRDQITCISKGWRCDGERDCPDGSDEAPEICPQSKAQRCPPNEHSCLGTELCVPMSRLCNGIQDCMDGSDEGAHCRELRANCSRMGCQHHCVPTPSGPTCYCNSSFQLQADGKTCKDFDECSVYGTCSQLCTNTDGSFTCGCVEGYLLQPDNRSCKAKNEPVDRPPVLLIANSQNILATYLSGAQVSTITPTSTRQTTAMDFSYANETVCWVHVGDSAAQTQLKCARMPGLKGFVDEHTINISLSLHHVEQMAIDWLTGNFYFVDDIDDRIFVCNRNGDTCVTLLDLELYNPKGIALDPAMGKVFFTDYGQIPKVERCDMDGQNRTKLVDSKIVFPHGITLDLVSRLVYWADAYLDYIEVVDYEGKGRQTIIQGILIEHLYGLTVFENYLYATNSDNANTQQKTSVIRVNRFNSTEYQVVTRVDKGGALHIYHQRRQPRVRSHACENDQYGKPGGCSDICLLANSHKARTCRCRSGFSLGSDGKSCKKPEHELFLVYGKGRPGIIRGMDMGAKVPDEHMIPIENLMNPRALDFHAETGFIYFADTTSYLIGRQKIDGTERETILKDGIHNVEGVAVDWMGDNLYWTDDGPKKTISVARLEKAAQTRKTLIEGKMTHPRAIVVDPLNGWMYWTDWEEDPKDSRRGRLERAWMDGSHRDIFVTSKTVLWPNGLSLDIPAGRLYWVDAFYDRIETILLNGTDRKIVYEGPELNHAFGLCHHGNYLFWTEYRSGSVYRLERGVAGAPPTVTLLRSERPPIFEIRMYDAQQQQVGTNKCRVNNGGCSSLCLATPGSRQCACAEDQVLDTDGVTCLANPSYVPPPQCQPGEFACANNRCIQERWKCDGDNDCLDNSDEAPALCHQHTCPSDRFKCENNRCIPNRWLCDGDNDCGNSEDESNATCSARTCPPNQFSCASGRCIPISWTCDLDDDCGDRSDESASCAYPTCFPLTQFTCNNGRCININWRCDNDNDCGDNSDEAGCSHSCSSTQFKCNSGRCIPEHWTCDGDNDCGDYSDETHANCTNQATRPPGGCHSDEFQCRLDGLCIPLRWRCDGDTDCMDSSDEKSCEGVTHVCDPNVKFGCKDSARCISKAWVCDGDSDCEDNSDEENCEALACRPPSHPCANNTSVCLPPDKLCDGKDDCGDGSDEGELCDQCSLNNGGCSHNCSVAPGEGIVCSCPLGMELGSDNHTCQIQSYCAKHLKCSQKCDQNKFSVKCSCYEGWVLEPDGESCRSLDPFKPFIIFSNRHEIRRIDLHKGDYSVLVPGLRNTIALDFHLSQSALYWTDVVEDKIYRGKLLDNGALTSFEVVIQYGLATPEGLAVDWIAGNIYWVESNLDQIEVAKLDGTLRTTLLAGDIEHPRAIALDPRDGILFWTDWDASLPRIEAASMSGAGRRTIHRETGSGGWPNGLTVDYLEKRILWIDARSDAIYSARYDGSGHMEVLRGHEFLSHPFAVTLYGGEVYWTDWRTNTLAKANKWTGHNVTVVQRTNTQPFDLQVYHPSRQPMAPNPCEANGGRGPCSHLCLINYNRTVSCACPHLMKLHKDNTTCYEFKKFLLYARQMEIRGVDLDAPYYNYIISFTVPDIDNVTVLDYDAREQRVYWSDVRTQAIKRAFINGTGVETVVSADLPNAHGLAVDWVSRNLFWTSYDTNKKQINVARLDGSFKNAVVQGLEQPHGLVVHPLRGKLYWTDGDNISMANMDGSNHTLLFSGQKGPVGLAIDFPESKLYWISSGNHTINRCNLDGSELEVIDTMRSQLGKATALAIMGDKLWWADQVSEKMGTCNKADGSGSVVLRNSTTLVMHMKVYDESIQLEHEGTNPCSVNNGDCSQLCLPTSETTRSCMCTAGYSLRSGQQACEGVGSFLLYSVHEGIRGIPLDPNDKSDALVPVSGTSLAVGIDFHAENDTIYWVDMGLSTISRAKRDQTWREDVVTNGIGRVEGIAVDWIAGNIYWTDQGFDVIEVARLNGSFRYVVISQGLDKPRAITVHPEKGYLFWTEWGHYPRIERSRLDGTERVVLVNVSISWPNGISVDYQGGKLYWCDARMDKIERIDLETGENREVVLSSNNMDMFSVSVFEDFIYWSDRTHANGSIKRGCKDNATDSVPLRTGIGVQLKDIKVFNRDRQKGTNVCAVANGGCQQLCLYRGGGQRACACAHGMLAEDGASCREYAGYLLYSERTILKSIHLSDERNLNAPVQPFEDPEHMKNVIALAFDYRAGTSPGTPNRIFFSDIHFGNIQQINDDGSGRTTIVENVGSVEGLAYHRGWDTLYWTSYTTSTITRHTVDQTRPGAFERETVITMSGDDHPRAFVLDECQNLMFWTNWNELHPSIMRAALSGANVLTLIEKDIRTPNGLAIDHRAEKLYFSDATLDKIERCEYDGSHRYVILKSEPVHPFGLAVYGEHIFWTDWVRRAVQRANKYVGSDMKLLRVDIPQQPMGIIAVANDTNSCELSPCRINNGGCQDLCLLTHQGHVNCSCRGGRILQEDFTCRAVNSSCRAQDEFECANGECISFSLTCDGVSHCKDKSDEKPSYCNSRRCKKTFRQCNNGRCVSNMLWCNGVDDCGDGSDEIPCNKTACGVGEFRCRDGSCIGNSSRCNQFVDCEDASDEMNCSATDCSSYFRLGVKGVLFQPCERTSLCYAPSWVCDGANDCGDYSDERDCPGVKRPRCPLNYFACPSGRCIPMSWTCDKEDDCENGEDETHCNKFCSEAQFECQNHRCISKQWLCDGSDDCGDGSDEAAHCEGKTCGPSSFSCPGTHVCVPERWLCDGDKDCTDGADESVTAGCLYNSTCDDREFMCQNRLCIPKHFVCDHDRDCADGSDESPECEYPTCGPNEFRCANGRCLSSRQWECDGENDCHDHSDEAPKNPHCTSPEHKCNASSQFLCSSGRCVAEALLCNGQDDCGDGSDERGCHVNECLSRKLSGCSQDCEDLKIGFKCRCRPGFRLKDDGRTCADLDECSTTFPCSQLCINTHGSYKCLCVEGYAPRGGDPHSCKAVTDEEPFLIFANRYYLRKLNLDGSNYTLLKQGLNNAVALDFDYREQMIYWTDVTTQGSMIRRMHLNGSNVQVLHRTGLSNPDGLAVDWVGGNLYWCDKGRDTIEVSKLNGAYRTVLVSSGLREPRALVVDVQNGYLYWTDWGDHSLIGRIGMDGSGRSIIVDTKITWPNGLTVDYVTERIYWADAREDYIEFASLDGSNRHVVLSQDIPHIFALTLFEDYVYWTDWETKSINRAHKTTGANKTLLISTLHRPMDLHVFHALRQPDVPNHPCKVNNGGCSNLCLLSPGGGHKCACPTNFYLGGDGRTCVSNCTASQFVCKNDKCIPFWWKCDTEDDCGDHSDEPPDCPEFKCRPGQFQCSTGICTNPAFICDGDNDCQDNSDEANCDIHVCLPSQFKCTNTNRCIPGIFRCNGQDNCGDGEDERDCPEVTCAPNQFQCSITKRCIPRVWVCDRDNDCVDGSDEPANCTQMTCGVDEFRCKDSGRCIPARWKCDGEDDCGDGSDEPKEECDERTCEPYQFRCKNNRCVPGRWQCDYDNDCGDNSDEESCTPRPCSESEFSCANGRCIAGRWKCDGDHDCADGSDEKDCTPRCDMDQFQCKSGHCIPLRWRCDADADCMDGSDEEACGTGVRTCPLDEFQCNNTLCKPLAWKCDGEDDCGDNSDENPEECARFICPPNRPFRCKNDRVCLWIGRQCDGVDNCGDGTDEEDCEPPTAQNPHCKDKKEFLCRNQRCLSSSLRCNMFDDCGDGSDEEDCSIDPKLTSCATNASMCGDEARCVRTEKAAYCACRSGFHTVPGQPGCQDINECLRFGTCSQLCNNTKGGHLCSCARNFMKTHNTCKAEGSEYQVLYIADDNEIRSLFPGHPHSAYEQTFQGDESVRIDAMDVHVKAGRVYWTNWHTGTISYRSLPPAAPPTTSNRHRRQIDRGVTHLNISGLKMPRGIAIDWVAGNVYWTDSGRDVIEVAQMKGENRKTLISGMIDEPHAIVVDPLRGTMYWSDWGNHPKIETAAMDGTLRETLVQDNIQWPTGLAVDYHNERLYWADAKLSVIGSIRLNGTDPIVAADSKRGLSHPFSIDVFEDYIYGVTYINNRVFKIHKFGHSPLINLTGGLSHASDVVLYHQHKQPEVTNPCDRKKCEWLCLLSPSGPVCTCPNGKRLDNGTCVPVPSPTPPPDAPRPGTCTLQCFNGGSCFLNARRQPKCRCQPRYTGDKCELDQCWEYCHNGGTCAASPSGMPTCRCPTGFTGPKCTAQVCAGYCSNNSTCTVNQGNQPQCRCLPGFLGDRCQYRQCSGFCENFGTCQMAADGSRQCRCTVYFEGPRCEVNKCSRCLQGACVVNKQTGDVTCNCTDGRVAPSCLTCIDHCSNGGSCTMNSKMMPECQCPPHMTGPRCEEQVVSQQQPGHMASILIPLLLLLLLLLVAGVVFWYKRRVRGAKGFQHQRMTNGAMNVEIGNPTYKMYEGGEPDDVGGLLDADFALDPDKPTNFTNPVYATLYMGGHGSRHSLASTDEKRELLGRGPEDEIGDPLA

Substance “(Q^3A^4Y^15L^16) IGF-I (from UniProt P05019 49-118) (ligand)” gave an ED50 for blocking IGFBP-3-induced growth inhibition in Mv1Lu cells in experiment [1] of 0.0003 µM.
In experiment [2], “bovine lactoferrin (from UniProt P24627 20-708) (ligand)” yielded an IC50 of 0.05 µM.
Take “cell surface annexin VI of mouse embryonic fibroblasts (MEF and PEA-13 cells) (from UniProt P14824 2-673) (receptor)”: the percent of LRP-1-bound 125I-α2M* co-immunoprecipitated by anti-annexin VI IgG in experiment [3] came to 40%.
For the substance “human low density lipoprotein (LDL) (from UniProt P04114 28-4563)”, in experiment [4], the IC50 was determined as 5 µg/mL.
Regarding “human receptor-associated protein (RAP) (from UniProt P30533 35-357) (ligand)”, in experiment [5], the IC50 came out at 5 µg/mL.
With “human transferrin (from UniProt P02787 20-698) (ligand)”, the half-maximal inhibitory concentration (IC50) in experiment [2] amounted to 0.5 µM.
On to insulin (ligand), for which, in experiment [6], the ED50 for blocking IGFBP-3-induced inhibition of DNA synthesis in Mv1Lu cells amounted to 0.001 µM.
In experiment [7], “native α2M (human) (from UniProt P01023 24-1474) (ligand)” registered an IC50 of 0.15 µM.

In general, IC50 refers to the midpoint of a concentration-inhibition curve. Read a low IC50 as inhibition by little substance.

The record behind these values is patent US20050250692A1.
